# Results as given in patent US20210318312.
# Changes are numbered by the printed parent chain. Names may count otherwise.
# T1: DLAT K259 Lipoyl peptide
# T1 chain: EIETDKATIGWW
# T2: H3 K9 Lipoyl peptide
# T2 chain: KQTARKSTGGWW
# T3: H3 K9 Biotinyl peptide
# T3 chain: KQTARKSTGGWW
# T4: lipoyl-modified DLAT peptide of the LC-MS deacylation assay
# T4 chain: EIETDKATIGWW
# T5: lipoyl-modified PDHX peptide
# T5 chain: EIETDKAVVTWW
# T6: DLAT K259 Acetyl peptide
# T6 chain: EIETDKATIGW
# T7: H3 K9 Acetyl peptide
# T7 chain: KQTARKSTGGWW
# B1: recombinant SIRT3 (Sigma, cat. #SRP0117-100UG) (protein)
# chain: ISFSVGASSVVGSGGSSDKGKLSLQDVAELIRARACQRVVVMVGAGISTPSGIPDFRSPGSGLYSNLQQYDLPYPEAIFELPFFFHNPKPFFTLAKELYPGNYKPNVTHYFLRLLHDKGLLLRLYTQNIDGLERVSGIPASKLVEAHGTFASATCTVCQRPFPGEDIRADVMADRVPRCPVCTGVVKPDIVFFGEPLPQRFLLHVVDFPMADLLLILGTSLEVEPFASLTEAVRSSVPRLLINRDLVGPLAWHPRSRDVAQLGDVVHGVESLVELLGWTEEMRDLVQRETGKLDGPDK
# B2: recombinant SIRT4 (N-terminally truncated human Sirt4, 33-314 of SEQ ID NO: 2) (protein)
# chain: VPASPPLDPEKVKELQRFITLSKRLLVMTGAGISTESGIPDYRSEKVGLYARTDRRPIQHGDFVRSAPIRQRYWARNFVGWPQFSSHQPNPAHWALSTWEKLGKLYWLVTQNVDALHTKAGSRRLTELHGCMDRVLCLDCGEQTPRGVLQERFQVLNPTWSAEAHGLAPDGDVFLSEEQVRSFQVPTCVQCGGHLKPDVVFFGDTVNPDKVDFVHKRVKEADSLLVVGSSLQVYSGYRFILTAWEKKLPIAILNIGPTRSDDLACLKLNSRCGELLPLIDPC
# B3: recombinant SIRT4 H161Y catalytic mutant (protein)
# chain: B2 chain with H129Y
# Experiments:
# DLAT K259 Lipoyl peptide = target: T1, DLAT K259 Lipoyl peptide
# H3 K9 Lipoyl peptide = target: T2, H3 K9 Lipoyl peptide
# H3 K9 Biotinyl peptide = target: T3, H3 K9 Biotinyl peptide
# [1] = target: T4, lipoyl-modified DLAT peptide of the …
# [2] = target: T5, lipoyl-modified PDHX peptide
# DLAT K259 Acetyl peptide = target: T6, DLAT K259 Acetyl peptide
# H3 K9 Acetyl peptide = target: T7, H3 K9 Acetyl peptide
# [3] = target: purified porcine heart pyruvate dehydrogenase (Sigma-Aldrich, cat. #P7032)
protein,measurement,setting,value
B1,"catalytic efficiency, fold lower than for DLAT acetyl",DLAT K259 Lipoyl peptide,this efficiency was 13-fold lower than for DLAT acetyl
same,in vitro deacylation kinetics,DLAT K259 Lipoyl peptide,SIRT3 showed some enzymatic activity towards DLAT lipoyl
B2,Km,H3 K9 Lipoyl peptide,814 µM
same,"LC-MS-based deacylation assay, hydrolysis of the acyl-lysine modification",H3 K9 Lipoyl peptide,SIRT4 was able to hydrolyze all three modifications
same,"catalytic efficiency, fold (another experiment)",H3 K9 Lipoyl peptide,lipoyl (28-fold)
same,"catalytic efficiency, fold against acetylated H3K9",H3 K9 Lipoyl peptide,lipoyl (SEQ ID NO: 3 (30-fold)
same,kcat,H3 K9 Lipoyl peptide,0.0019 s⁻¹
same,kcat/Km,H3 K9 Lipoyl peptide,2.3 s^-1M^-1
same,relative amount of unmodified product generated using 5 µM SIRT4,H3 K9 Lipoyl peptide,11% (lipoyl-SEQ ID NO: 3)
same,Km,H3 K9 Biotinyl peptide,719 µM
same,"LC-MS-based deacylation assay, hydrolysis of the acyl-lysine modification",H3 K9 Biotinyl peptide,SIRT4 was able to hydrolyze all three modifications
same,"catalytic efficiency, fold (another experiment)",H3 K9 Biotinyl peptide,biotinyl (9-fold)
same,"catalytic efficiency, fold against acetylated H3K9",H3 K9 Biotinyl peptide,biotinyl (SEQ ID NO: 4) (11-fold)
same,kcat,H3 K9 Biotinyl peptide,0.0005 s⁻¹
same,kcat/Km,H3 K9 Biotinyl peptide,0.74 s^-1M^-1
same,relative amount of unmodified product generated using 5 µM SIRT4,H3 K9 Biotinyl peptide,3% (biotinyl-SEQ ID NO: 4)
same,proportion of unmodified peptide generated following reaction,[1],increased to 33% for DLAT (SEQ ID NO: 11)
same,Km,MCD K471 Acetyl peptide,ND (>2500)
same,kcat/Km,MCD K471 Acetyl peptide,0.0064 s^-1M^-1
same,proportion of unmodified peptide generated following reaction,[2],42% for PDHX (SEQ ID NO: 13)
same,Km,DLAT K259 Acetyl peptide,ND* (>2500)
same,"catalytic efficiency, fold lower than DLAT lipoyl",DLAT K259 Acetyl peptide,this efficiency was still 38-fold lower than DLAT lipoyl
same,kcat,DLAT K259 Acetyl peptide,0.0011 s⁻¹
same,kcat/Km,DLAT K259 Acetyl peptide,0.2 s^-1M^-1
same,Km,H3 K9 Acetyl peptide,ND* (>2500)
same,"LC-MS-based deacylation assay, hydrolysis of the acyl-lysine modification",H3 K9 Acetyl peptide,SIRT4 was able to hydrolyze all three modifications
same,kcat/Km,H3 K9 Acetyl peptide,0.083 s^-1M^-1
same,relative amount of unmodified product generated using 5 µM SIRT4,H3 K9 Acetyl peptide,0.3% (acetyl-SEQ ID NO: 3)
same,Km,DLAT K259 Lipoyl peptide,239 µM
same,"catalytic efficiency, fold against H3K9 lipoyl",DLAT K259 Lipoyl peptide,3.5-fold increased efficiency compared to H3K9 lipoyl
same,"catalytic efficiency, fold against H3K9 lipoyl (another experiment)",DLAT K259 Lipoyl peptide,3.3-fold increase in efficiency compared to H3K9 lipoyl
same,"catalytic efficiency, fold against deacetylation of MCD",DLAT K259 Lipoyl peptide,˜1270-fold more efficient at hydrolyzing the DLAT lipoamide
same,kcat,DLAT K259 Lipoyl peptide,0.0016 s⁻¹
same,kcat/Km,DLAT K259 Lipoyl peptide,7.65 s^-1M^-1
same,"PDH activity, immuno-capture colorimetric assay",[3],only active SIRT4 was able to attenuate PDH activity
B3,LC-MS-based deacylation assay,H3 K9 Lipoyl peptide,observed no significant activity for any of these substrates
same,LC-MS-based deacylation assay,H3 K9 Biotinyl peptide,observed no significant activity for any of these substrates
same,LC-MS-based deacylation assay,H3 K9 Acetyl peptide,observed no significant activity for any of these substrates
same,"PDH activity, immuno-capture colorimetric assay",[3],only active SIRT4 was able to attenuate PDH activity
